The target in one data set is T1, GPATCH3 (UniProt Q96I76).
T1 sequence: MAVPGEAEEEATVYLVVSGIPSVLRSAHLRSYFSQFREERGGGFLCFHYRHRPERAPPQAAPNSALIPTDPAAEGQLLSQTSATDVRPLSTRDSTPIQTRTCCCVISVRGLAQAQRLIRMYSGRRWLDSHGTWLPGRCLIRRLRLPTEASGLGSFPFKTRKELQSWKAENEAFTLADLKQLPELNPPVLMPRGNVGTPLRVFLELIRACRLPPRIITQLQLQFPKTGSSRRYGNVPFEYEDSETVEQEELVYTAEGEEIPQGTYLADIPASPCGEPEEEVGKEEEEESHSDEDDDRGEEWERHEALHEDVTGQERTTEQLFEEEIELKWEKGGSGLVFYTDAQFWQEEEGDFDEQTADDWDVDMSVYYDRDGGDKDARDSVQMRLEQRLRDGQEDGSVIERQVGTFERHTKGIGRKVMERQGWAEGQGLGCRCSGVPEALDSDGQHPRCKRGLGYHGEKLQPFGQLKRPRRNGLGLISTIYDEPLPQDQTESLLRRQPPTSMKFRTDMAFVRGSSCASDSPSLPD
Kind of data set: EC50 of free RNA motif oligo competing protein binding to immobilised probe. Summed up: (§1)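 Kd was calculated as EC50, taken from a four-parameter log-logistic fit, multiplied by a protein-dependent depletion factor. The assay used HEK293-FT lysate (2.5 mg protein/well) pre-incubated for 1 h at 4°C with free RNA oligos (0 nM to 30 μM), then incubated for 30 min at 4°C with the matching oligos bound through a 5′-amino-C6 linker to NHS-Sepharose beads. Bound proteins were measured by label-free LC-MS/MS and normalised to the control.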

A further data set deals with LSM3 (UniProt P62310). The description is as above. Summed up:
as §1

The target in the next data set is T2, MEX3A (UniProt A1L020).
T2 sequence: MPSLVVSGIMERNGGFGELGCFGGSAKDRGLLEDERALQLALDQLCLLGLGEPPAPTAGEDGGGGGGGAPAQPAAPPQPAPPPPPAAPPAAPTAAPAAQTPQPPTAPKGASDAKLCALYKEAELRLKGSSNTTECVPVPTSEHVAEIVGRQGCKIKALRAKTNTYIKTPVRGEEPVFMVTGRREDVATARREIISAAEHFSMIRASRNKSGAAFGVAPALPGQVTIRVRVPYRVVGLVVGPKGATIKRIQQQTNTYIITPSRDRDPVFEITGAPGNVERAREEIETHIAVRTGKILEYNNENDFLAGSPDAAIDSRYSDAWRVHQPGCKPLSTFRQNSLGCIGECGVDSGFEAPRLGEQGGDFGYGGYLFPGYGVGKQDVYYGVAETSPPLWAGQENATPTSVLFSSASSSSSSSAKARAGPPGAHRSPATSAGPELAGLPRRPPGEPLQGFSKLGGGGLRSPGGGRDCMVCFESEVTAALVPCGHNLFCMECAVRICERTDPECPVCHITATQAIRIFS
Described as above. Summed up: as §1

The next data set has as its target XRN1 (UniProt Q8IZH2). Described as above. Summed up: as §1
For the next data set, the target named is MRPL50 (UniProt Q8N5N7). Kind of data set: Kd (EC50 corrected by depletion factor). Summed up:
as §1

A further data set concerns the target T3, SSB (UniProt P05455).
T3 sequence: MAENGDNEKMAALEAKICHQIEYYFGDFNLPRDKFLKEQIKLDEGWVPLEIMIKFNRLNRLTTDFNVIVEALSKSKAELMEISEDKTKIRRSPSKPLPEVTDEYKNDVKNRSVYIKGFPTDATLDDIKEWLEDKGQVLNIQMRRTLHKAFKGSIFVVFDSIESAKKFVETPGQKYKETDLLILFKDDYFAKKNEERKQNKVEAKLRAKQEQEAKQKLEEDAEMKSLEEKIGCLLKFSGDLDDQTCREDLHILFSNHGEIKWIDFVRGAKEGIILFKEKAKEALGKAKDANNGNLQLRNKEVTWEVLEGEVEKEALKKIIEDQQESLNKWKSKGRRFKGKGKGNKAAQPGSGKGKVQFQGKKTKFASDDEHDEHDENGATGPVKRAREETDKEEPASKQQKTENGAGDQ
In words: EC50 of free RNA motif oligo competing protein binding to immobilised probe. Put shortly: as §1

The source of these data is the supplement of paper PMC6379048.

Sequence of LSM3 (P62310 whole entry): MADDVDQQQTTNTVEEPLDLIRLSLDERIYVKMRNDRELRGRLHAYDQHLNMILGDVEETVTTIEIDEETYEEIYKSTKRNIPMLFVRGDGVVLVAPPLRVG
Sequence of XRN1 (Q8IZH2 whole entry): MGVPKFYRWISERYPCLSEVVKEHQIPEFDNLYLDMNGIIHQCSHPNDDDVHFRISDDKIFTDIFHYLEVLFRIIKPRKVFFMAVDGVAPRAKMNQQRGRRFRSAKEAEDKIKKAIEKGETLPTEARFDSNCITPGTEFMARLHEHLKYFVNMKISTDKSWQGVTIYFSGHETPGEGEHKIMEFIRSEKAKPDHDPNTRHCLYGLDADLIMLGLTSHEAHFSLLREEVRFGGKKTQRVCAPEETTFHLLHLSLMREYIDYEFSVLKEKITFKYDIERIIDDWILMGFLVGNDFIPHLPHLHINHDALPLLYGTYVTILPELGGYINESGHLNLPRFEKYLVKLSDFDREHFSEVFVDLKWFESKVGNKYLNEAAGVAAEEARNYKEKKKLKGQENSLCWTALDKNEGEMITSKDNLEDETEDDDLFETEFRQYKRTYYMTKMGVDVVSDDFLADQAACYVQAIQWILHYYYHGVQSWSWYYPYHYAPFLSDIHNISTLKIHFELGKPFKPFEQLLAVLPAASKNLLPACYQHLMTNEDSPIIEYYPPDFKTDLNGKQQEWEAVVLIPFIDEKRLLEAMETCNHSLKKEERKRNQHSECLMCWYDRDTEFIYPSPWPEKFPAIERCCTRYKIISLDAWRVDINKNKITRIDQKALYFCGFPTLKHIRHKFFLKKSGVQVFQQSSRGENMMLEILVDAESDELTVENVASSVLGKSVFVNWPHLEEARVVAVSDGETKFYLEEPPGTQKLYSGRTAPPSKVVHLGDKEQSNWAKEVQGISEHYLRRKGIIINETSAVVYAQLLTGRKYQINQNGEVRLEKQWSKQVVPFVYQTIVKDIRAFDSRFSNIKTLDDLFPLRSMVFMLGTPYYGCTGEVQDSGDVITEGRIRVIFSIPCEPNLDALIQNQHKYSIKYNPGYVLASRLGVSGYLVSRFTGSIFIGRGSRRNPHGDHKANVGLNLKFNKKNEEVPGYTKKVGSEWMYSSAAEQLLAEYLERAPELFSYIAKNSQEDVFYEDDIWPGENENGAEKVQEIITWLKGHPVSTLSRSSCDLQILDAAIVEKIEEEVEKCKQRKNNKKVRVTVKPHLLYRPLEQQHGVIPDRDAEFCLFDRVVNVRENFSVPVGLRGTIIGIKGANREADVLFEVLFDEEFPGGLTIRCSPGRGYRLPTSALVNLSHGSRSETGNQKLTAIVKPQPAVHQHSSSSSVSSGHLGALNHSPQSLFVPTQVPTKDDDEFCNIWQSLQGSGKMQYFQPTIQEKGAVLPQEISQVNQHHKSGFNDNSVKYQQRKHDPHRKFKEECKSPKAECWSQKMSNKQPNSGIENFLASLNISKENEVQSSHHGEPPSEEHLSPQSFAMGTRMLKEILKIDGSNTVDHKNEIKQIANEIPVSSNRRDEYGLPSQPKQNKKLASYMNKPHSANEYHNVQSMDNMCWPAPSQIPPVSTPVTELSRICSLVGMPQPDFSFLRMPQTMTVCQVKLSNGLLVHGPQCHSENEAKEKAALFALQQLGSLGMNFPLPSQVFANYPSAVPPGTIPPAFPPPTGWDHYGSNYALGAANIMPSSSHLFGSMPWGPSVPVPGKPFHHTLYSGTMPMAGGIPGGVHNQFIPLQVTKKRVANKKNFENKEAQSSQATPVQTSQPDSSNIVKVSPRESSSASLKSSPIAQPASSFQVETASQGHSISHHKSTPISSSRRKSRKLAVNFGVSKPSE

Turning to AAUAAA, the EC50 with GPATCH3 is 884 nM; with LSM3, 358 nM; with MEX3A it was 1470 nM; with XRN1 it was 440 nM.

The sequence CUGUCCU came in with a Kd with MRPL50 of 149 nM. The sequence also showed an EC50 with SSB of 2640 nM.

On to UAUUUAU, for which the EC50 with GPATCH3 came to 326 nM; in the data set with LSM3 it was 694 nM; with MEX3A, 989 nM; with SSB it was 300 nM; with XRN1, 196 nM.

One may read the EC50 as the concentration giving half of the maximal effect. High values mean lower potency in that assay, low ones higher potency in that assay. The term Kd denotes the free concentration of one partner at which half of the binding sites on the other are occupied at equilibrium, for simple one-to-one binding.
